Article PMC6590076

Target: 14-3-3β (UniProt P31946)
Assay: in vitro pull-down, immobilized phosphoprotein

Substance: FOXO3A (from UniProt O43524) FOXO3A with pSer413 (SepOTSλ)
- binding against the reference (reference: FOXO3A with Ser413 (supD tRNA), sites S413): stronger

Substance: FOXO3A (from UniProt O43524) FOXO3A with pSer253 (SepOTSλ)
- binding against the reference (reference: FOXO3A with Ser253 (supD tRNA), sites S253): stronger
